Reference: patent US20120207673A1

DP47 VH with CDR2 of HEL4, sequence (VH): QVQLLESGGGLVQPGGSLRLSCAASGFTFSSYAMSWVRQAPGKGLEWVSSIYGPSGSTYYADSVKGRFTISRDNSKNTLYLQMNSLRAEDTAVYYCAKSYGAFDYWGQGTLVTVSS

These substances were tested against protein A (UniProt P38507) (assay: phage ELISA on coated protein A; heat/cool assay, % of untreated sample).
For DP47 VH SYA31-33DED, the Retained binding to protein A was 67%.

Each substance was assayed against protein A (UniProt P38507) (assay: phage ELISA on coated protein A; signal after 80 C 10 min then 4 C 10 min as % of the untreated sample (heat/cool assay)).
In the case of DP47 VH with CDR2 of HEL4, the Retained binding to protein A is reported as 4%. For DP47 VH with CDR3 of HEL4, the Retained binding to protein A was 3%.

These substances were tested against protein A (UniProt P38507) (assay: phage ELISA on coated protein A; heat/cool assay, % of untreated sample (n = 2)).
With DP47 VH SA_31/33_DD the Retained binding to protein A (%) was 52%. DP47 VH SYA31-33DED was tested, and the Retained binding to protein A (%) was 69%. DP47 VH SYA_31-33_DDD showed a Retained binding to protein A (%) of 66%. For DP47 VH SY_31/32_DD, the Retained binding to protein A (%) was 62%. DP47 VH SY_31/32_DE was tested, and the Retained binding to protein A (%) was 50%. DP47 VH YA_32/33_DD showed a Retained binding to protein A (%) of 64%. With DP47 VH YA_32/33_ED the Retained binding to protein A (%) was 59%.
